No end group written: not given here.

Assay [1] relates to whole rat hearts. Nature of the assay: Ex vivo Langendorff perfused whole hearts, peptide before 30 min global ischemia, creatine phosphokinase release. An excerpt: In another study performed in support of the invention, the δPKC selective inhibitor peptide, δV1-1, or the activator peptide, ψδRACK, were delivered to whole hearts ex vivo to determine if the peptides have activity when introduced extracellulary to a whole organ. As described in Example 3, δV1-1 and ψδRACK peptides were conjugated to a carrier peptide, a Tat-derived peptide. The peptides were delivered into Langendorff perfused rat hearts prior to induction of an ischemic period. After perfusion with the peptides, global ischemia was effected for 30 minutes. After the 30 minute ischemic period, the amount of creatine phosphokinase (CPK) released was monitored during a 30 minute reperfusion period.
Adult, male rats were anesthetized with i.p. avertin, and their hearts were rapidly removed and cannulated via the aorta for perfusion as described in the art (Colbert, M. C. et al.) using Langendorff set-up. Care was taken to have the hearts perfused within 90 seconds of removal. The hearts were perfused with oxygenated Krebs-Henseleit solution comprised of, in […], NaCl 120; KCl 5.8; NaHCO3 25; NaH2O4 1.2; MgSO4 1.2; CaCl2 1.0; and dextrose 10, pH 7.4 at 37 C.
After a 10-20 minute equilibration period, the hearts were perfused with δV1-1 peptide (SEQ ID NO:4) or with ψδRACK peptide (SEQ ID NO:6), prepared as described in Example 1 but conjugated to a Tat-derived peptide (Tat 47-57, SEQ ID NO:9), for 20 minutes. Perfusion was maintained at a constant flow of 10 mL/min with Krebs-Hanseleit solution containing 0.5 μM of the appropriate peptide. The Langendorff method employed used retrograde flow from the […] and into the coronary arteries, bypassing the pulmonary arteries.
To induce global ischemia, flow was interrupted for 30 minutes. After the ischemic event, the hearts were re-perfused for 30-60 minutes. During reperfusion, ischemia-induced cell damage was determined by measuring the activity of creatine phosphokinase (CPK) (absorbance at 520 nm) in the perfusate using a Sigma kit. […]

Assay [2] addresses T1, δPKC (Rattus norvegicus, UniProt P09215).
T1 construct: endogenous in cells; host or cells: primary neonatal rat cardiac myocytes
Nature of the assay: Translocation of δPKC in primary cardiac myocytes (Western blot of soluble and particulate fractions). Format: cell-based. Here is the method:
As described in Example 1, the δV1-1 and ψδRACK peptides were analyzed to determine whether the peptides had activity, and if so, whether the activity was as an agonist or an antagonist of δPKC. As will be shown, δV1-1, δV1-2 and δV1-5 are δPKC antagonists and ψδRACK is a δPKC agonist. In these studies, the δV1-1 and ψδRACK peptides were modified with a carrier peptide by cross-linking via an N-terminal Cys-Cys bond to the Drosophila Antennapedia homeodomain (SEQ ID NO:8; Théodore, L., et al.; Johnson, J. A. et al., 1996b). In other studies, not described here, the peptide was modified with Tat (SEQ ID NO:9) or with polyarginine (Mitchell et al., 2000; Rothbard et al., 2000) and gave results similar to those described herein. Details of the study are set forth in Example 1. In brief, the Antennapedia-conjugated peptides were introduced to cardiac cells at a concentration of 500 nM in the presence and absence of phorbol 12-myristate 13-acetate (PMA) or in the presence of each other. Translocation of δPKC isozyme was assessed by Western blot analysis cystosolic and particulate fractions of treated cells. Subcellular localization of δPKC isozyme was assessed by immunofluorescence by probing the blot with […], and anti-εPKC antibodies. Translocation was expressed as the amount of isozyme in the particulate fraction over the amount of isozyme in non-treated cells.
Primary cardiac myocyte cell cultures (90-95% pure) were prepared from newborn rats (Gray, M. O. et al.; Disatnik M.-H. et al.). The peptides δV1-1 and ψδRACK were introduced into cells at an applied concentration of 500 nM in the presence and absence of phorbol 12-myristate 13-acetate (PMA) at concentrations of 3 nm and 10 nm, respectively, for 10-20 minutes. In a third set of cells, the peptide δV1-1 was applied at a concentration of 500 nM in the presence and absence of 500 nM ψδRACK.
Translocation of δPKC isozyme was assessed by using δPKC isozyme-specific antibodies in Western blot analysis (Santa Cruz Biotechnology). Western blot analysis of cystosolic and particulate fractions of treated cells was carried out as described by Johnson et al., 1995. Subcellular localization of dPKC isozymes was assessed by chemiluminescence of blots probed with anti-δPKC, anti-αPKC and anti-εPKC antibodies. Amounts of PKC isozymes in each fraction was quantitated using a scanner and translocation is expressed as the amount of isozymes in the particulate fraction over the amount of isozymes in non-treated cells. Changes in translocation of δPKC isozyme were also determined by immunofluoresence study of treated and fixed cells (Gray et al., 1997). Translocation was determined by counting over 100 cells/treatment in a blinded fashion. The results are shown in FIG. 2A-2B, FIGS. 3A-3B and FIGS. 4A-4B.
A general note: Immunoblotting shows a protein as a band on a membrane.

The target in assay [3] is T2, αPKC (Rattus norvegicus, UniProt P05696).
T2 construct: blots probed with anti-δPKC, anti-αPKC and anti-εPKC antibodies; endogenous in cells; host or cells: primary neonatal rat cardiac myocytes
Nature of the assay: Translocation of αPKC in primary cardiac myocytes (Western blot). Particulars: data not shown. It is filed as cell-based. How it is done: As described in Example 1, the δV1-1 and ψδRACK peptides were analyzed to determine whether the peptides had activity, and if so, whether the activity was as an agonist or an antagonist of δPKC. As will be shown, δV1-1, δV1-2 and δV1-5 are δPKC antagonists and ψδRACK is a δPKC agonist. In these studies, the δV1-1 and ψδRACK peptides were modified with a carrier peptide by cross-linking via an N-terminal Cys-Cys bond to the Drosophila Antennapedia homeodomain (SEQ ID NO:8; Théodore, L., et al.; Johnson, J. A. et al., 1996b). […] Translocation of δPKC isozyme was assessed by Western blot analysis cystosolic and particulate fractions of treated cells. Subcellular localization of δPKC isozyme was assessed by immunofluorescence by probing the blot with […], and anti-εPKC antibodies. Translocation was expressed as the amount of isozyme in the particulate fraction over the amount of isozyme in non-treated cells. […]
Translocation of δPKC isozyme was assessed by using δPKC isozyme-specific antibodies in Western blot analysis (Santa Cruz Biotechnology). […] Subcellular localization of dPKC isozymes was assessed by chemiluminescence of blots probed with anti-δPKC, anti-αPKC and anti-εPKC antibodies. […] Changes in translocation of δPKC isozyme were also determined by immunofluoresence study of treated and fixed cells (Gray et al., 1997). […]

Setting [4] is: 0.5 μM Tat-conjugated peptide for 20 minutes before 30 minute global ischemia.

T1 sequence (P09215 whole entry): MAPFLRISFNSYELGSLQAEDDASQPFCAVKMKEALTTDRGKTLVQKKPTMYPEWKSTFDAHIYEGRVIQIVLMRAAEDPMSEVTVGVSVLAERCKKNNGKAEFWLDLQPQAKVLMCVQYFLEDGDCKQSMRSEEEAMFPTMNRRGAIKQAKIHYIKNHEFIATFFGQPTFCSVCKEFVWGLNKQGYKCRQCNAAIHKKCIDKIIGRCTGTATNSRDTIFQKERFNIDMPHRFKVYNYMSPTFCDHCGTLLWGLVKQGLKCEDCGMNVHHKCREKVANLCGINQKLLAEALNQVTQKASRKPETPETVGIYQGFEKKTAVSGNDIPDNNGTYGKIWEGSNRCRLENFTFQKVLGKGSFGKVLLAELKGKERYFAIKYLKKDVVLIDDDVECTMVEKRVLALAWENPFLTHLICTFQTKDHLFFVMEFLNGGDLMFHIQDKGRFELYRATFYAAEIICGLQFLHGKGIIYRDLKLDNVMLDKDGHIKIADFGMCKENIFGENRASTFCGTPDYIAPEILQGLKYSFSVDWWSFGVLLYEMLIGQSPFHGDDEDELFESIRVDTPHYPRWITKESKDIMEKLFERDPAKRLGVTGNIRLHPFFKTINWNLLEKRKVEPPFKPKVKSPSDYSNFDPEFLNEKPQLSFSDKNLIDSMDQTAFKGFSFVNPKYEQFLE

As for “SFNSYELGSL (also: conjugated to Antennapedia or Tat carrier; listed as Rattus norvegicus) [δV1-1, tested conjugated to Antennapedia or Tat carrier]”, in assay [1] (0.5 μM Tat-conjugated peptide before 30 minute global ischemia, reperfusion period), the “release of creatine kinase” value was “decreased”. In addition, in assay [1] (setting [4]), the “protection against ischemic damage in an intact heart” value is given as “greater than 50%”. The “PMA-induced δPKC translocation” value in assay [2] (500 nM Antennapedia-conjugated peptide, with PMA, 10-20 minutes, newborn rat cardiac myocytes) is recorded as “inhibited”. Besides, the “basal partitioning of δPKC in the particulate fraction” value in assay [2] (500 nM δV1-1, no ψδRACK) was “inhibited”. In addition, the “translocation of αPKC” value in assay [3] was “did not inhibit”.
Turning to “MRAAEDPM (also: conjugated to Antennapedia or Tat carrier; listed as Rattus norvegicus) [ψδRACK, tested conjugated to Antennapedia or Tat carrier]”, the “enhancement of cardiac damage induced by ischemia (CPK release)” value in assay [1] (setting [4]) is listed as “about 30%”. Besides, in assay [2] (500 nM Antennapedia-conjugated peptide, cardiac myocytes), the “δPKC translocation induced by the peptide” value was “selectively induced”. Further, in assay [2] (500 nM ψδRACK together with 500 nM δV1-1), the “effect on the δV1-1 inhibition of basal δPKC partitioning” value is on record as “reversed”. Moreover, the “translocation of αPKC” value in assay [3] is given as “without affecting”.

These data come from US6855693B2, “Peptides for activation and inhibition of δPKC” (The Board of Trustees of the Leland Stanford Junior …, priority 2001, dated 2005).
